Test results reported in the Human Domainome abundance scans (Beltran et al. 2025).

B1: DNA topoisomerase 3-alpha, residues 812 to 851; numbered along this chain, Q13472 (parent)
chain: TCNCGQEAVLLTVRKEGPNRGRQFFKCNGGSCNFFLWADS
B2: Spectrin alpha chain, erythrocytic 1, residues 979 to 1036; numbered along this chain, P02549 (parent)
chain: EQRVMALYDFQARSPREVTMKKGDVLTLLSSINKDWWKVEAADHQGIVPAVYVRRLAH

Variants of: B1
Assay: abundance fitness (aPCA) (normalised: wild type 0, dead -1); higher = more abundant; growth selection in yeast, the domain comes from the species named
Settings: Homo sapiens

Abundance fitness: each site, then its substitutions
F35: Q -0.241; E -0.447; L -0.444; V -0.352; W -0.246; K -0.014; P -0.388
W37: L -0.52; R -0.51; G -0.48; A -0.477; V -0.19; K -0.29; T -0.483; P -0.239
F34: R -0.374; E -0.626; K -0.576; L -0.703; Q -0.44; H -0.396
L36: V -0.255; M 0.022; S 0.134; G -0.177; F 0.063; R 0.013; E -0.013; W -0.134; A 0.028; K 0.189; H -0.22; Y -0.265
D39: G -0.227; L -0.93; R -0.838; M -1.03; E -0.105; C -0.205; P -0.171; Q -0.63
A38: V -0.295; P -0.659; D -0.371
C32: V -0.977; S -0.33; T -0.854
N33: G -0.072; T -0.075; V -0.7; S -0.057; L -0.892; W -0.572; A -0.12

Variants of: B2
Assay: as above
Settings: Homo sapiens

Abundance fitness, by site and new letter:
K21: F -0.643; L -0.731; R -0.105; P -0.578; H -0.304; I -0.779; A -0.561; V -0.781; G -0.652; W -0.534
D9: W -1.02; M -0.855; T -0.862; A -0.166; S -0.754; L -0.566; E -1.01; N -0.651; V -0.934; R -0.943; G -0.652
P15: E -0.077; V -0.561; K 0.089; Y 0.325; C -0.411; T -0.293; G -0.46; D 0.163; A -0.252; L -0.705; R -0.529; S -0.178
K22: H -0.341; A -0.664; E -0.819; W -0.725; R -0.238; Q 0.303; C -0.586
A6: S -0.496; M -0.915; R -0.767; K -0.73; Y -0.794; V -0.861; C -0.048; W -0.754; E -0.47; L -0.886; G -0.76; P -0.882; T -0.685; N -0.44; Q -0.975
A12: M -0.891; G -0.779; L -0.964; K -0.71; V -0.848; P -0.971; S -0.802; W -0.804; R -0.389; F -0.627
R3: P -0.94; T -0.778; Q -0.272; V -0.828; K 0.226; M -0.448; H -0.408; E -0.582; S -0.737; Y 0.294; F 0.074; W -0.209; L -0.14; C -0.645; A -0.574
T19: Q -0.476; N -0.122; P -0.613; W -0.932; L -0.369; V -0.822; E -0.73; R -0.744; A -0.371; S 0.249
Q2: V -0.384; S -0.822; T -0.614; G -0.187; E 0.108; F 0.195; H -0.061; P -0.874; R -0.401; L -0.573; D 0.855; A -0.002
L7: R -0.686; H -1.18; V -0.199; W -0.716; P -0.76; S -0.85; A -0.609; M -0.049; K -0.176; D -0.135; G -0.559
V18: G -0.587; W -1.03; Q -0.656; P -0.71; C -0.266; E -0.784; F -0.339; L 0.138; M -0.33; R -0.817; K -0.418; A -0.376
E1: R -0.215; D 0.242; G -0.425
V4: L -0.537; A -0.945; M -0.716; P -0.927; T -1.04; R -0.877; G -1.05; C -0.52; K -0.739; Q -0.145
F10: A -0.778; S -0.707; R -0.472; P -0.712; G -0.996; Q -0.607; C -1.09; L -0.658; I -0.341; W 0.365; D -0.834; V -0.992; Y 0.625
R16: S 0.579; A 0.254
T27: N -0.246; I -0.521; V -0.396; C -0.627; A -0.975; L -0.752; Q -0.228; S -0.808; P -0.382; K 0.229
D24: G -0.883; Y -0.805; L -0.986; T 0.006; R -0.689; V -0.421; M -0.527; S -0.256; Q 0.579
Q11: W -1.23; S -0.372; M -0.314; G -0.774; H -0.421; C -0.348; K 0.303; E -0.328; P -0.91; I -0.419; T 0.028; V 0.097; Y -0.185; D -0.582; A -0.37
M5: C -0.516; I 0.162; T -0.242; V 0.422; W -0.85; G -0.813; A -0.587; S -0.344; K -0.201; Q -0.383; N -0.512; E 0.081
V25: C -0.146; I -0.099; S -0.887; R -0.469; E 0.059; A -0.163; M -0.425; K -0.226; T -0.7; L -1.01; H -0.432
Y8: A 0.346; F 0.772
M20: Y -0.867; E -0.726; I -0.554; V -0.22; G -0.829; A -0.791; W -0.622; F -0.681; N -0.209; C -0.726; K -0.574; Q -0.236; R -0.963; L -0.276; P -0.831; T -0.877
S14: N 0.014; L -0.866; G -0.358; Q -0.769; V -0.677; A -0.743; P -0.802; C -0.571; D 0.134; R -0.364; I -0.276; T -0.069; H -0.292
E17: Y -0.012; G -0.801; H -0.63; L -0.802; C -0.911; V -0.9; A -0.64; N -0.693; F -0.594; W -0.8; K -0.403; S -0.92; R -0.778; Q -0.239; D -0.738; T -0.729
R13: C -0.316; K -0.414; F -0.585; L -0.742; W -0.738; A -0.26; V -0.867; S -0.221; Q -0.305; M -0.751; G -0.527
L26: R -0.819; C -0.046; M -0.34; F -0.237; V -0.767; K -0.324; E -0.5; Q -0.429; A -0.493; I -0.691; Y -0.173; G -0.65
